Patent US20170210813A1 (Regeneron, published 2017)

T1: Macaca fascicularis PDGFRb.mmh (Macaca fascicularis)
T1 construct: Soluble monomeric construct; also called mfPDGFRb.mmh
T1 chain: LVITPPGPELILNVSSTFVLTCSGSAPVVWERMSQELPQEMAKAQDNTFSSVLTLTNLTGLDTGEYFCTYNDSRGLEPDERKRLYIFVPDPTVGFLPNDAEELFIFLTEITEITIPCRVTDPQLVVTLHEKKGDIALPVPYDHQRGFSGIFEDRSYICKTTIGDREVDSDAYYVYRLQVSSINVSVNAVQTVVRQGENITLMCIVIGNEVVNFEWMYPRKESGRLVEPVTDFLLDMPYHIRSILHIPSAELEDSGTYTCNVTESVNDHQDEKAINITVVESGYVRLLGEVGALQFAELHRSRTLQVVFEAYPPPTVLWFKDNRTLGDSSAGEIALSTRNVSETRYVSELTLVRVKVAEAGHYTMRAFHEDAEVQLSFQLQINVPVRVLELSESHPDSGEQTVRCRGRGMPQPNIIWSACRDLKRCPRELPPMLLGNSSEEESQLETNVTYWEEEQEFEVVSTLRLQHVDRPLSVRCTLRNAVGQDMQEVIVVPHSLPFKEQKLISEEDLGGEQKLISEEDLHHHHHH

B1: H4H3310N (antibody, human IgG4, V domains shown)
VH: EVQLLESGGDLVQPGGSLRLSCAASGITFSSFAMSWVRQAPGKGLEWVSTVSVSAGITYYADSVKGRFTISRDNSKNTLYLQMNSLRAEDTAIYYCAKSSCTTNSCPAYFDYWGLGTLVTVSS
VL: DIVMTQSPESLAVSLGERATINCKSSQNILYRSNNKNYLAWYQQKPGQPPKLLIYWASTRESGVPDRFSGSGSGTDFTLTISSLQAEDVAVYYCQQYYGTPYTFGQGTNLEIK
notes: human IgG4 Fc (H4H prefix)
B2: H4H3107S (antibody, human IgG4, V domains shown)
VH: QVQLVESGGGFVQPGGSLRLSCAASGFTFTNYAMSWVRQAPGKGLEWVSAISGVGGSTYYADSVKGRFTISRDTSKNMLYLQMNSLRAEDTAVYYCAKAPHWGPFGSWGQGTLVTVSS
VL: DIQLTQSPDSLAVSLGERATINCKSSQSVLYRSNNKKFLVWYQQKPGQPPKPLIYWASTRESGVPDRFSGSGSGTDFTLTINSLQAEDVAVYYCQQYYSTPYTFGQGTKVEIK
notes: human IgG4 Fc (H4H prefix)
B3: H4H3365N (antibody, human IgG4, V domains shown)
VH: EVQLVESGGGLVQPGRSLRLSCAASGFTFDDFAMHWVRQVPGKGLEWVSGISWSSGTIGYVGSVKGRFTISRDNAKNSLYLQMNSLRAEDTAMYFCTKDKAAFHDAFDIWGQGTMVTVSS
VL: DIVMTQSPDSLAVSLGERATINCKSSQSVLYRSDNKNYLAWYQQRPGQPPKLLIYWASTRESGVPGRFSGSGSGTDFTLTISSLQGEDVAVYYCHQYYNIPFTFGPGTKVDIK
notes: human IgG4 Fc (H4H prefix)

Columns and labels:
[1] = biological target: T2, full length human PDGFR-beta on HEK293 cells (human, UniProt P09619 33-1106); experiment: cell-based or functional assay
[2] = biological target: T2, full length human PDGFR-beta on HEK293 …; experiment: cell-based or functional assay; remark: listed apart in the source
hPDGFRb.mmh [3] = biological target: T3, hPDGFRb.mmh (human, UniProt P09619 33-531); experiment: SPR, mAb captured, 25 C
T3 construct: Soluble monomeric construct; also called soluble human PDGFR-beta.mmh
Protocol: (§1) Antibodies, expressed as either mouse Fc (prefix H1M; H2M) or human Fc (prefix H4H), were captured on their respective anti-Fc sensor surfaces (Mab capture format). […] Kinetic association (kₐ) and dissociation (kd) rate constants were determined by processing and fitting the data to a 1:1 binding model using Scrubber 2.0 curve fitting software.

[4] = biological target: T1, Macaca fascicularis PDGFRb.mmh; experiment: SPR, mAb captured, 25 C
Protocol: as §1

human PDGFRb.hFc [5] = biological target: T4, human PDGFRb.hFc (human); experiment: SPR, mAb captured, 25 C
T4 construct: Soluble dimeric construct with human Fc; also called hPDGFRb.hFc
Protocol: as §1

hPDGFRb.mmh [6] = biological target: T3, hPDGFRb.mmh; experiment: SPR, mAb captured, 37 C
Protocol: as §1

[7] = biological target: T1, Macaca fascicularis PDGFRb.mmh; experiment: SPR, mAb captured, 37 C
Protocol: as §1

human PDGFRb.hFc [8] = biological target: T4, human PDGFRb.hFc; experiment: SPR, mAb captured, 37 C
Protocol: as §1

hPDGFRb.mmh [9] = biological target: T3, hPDGFRb.mmh; experiment: blocking ELISA, biot-hPDGFRb.mmh to coated PDGF-BB
hPDGFRb.mmh [10] = biological target: T3, hPDGFRb.mmh; experiment: Octet BLI cross-competition, 25 C; hPDGFRb.mmh on anti-Penta-His tips pre-saturated with mAb-1 H4H3094P (row 5)
Protocol: (§2) A cross-competition assay was conducted to assess the ability of select antibodies to compete with one another for binding to human PDGFR-beta. […] Each PDGFR-beta.mmh-coated sensor tip was saturated for 5 min with a first anti-PDGFR-beta antibody (Mab #1; 50 μg/mL). Next, each sensor tip was saturated with a solution of a second anti-PDGFR-beta antibody (Mab #2). The real time response of Mab #2 binding to PDGR-beta.mmh pre-complexed with Mab #1 was then monitored. All assays were performed at 25° C. with a flow rate of 1000 rpm on an Octet RED384 biosensor in Octet HBST buffer according to manufacturer's instructions (ForteBio Corp., Menlo Park, Calif.). Results are illustrated in FIG. 2.

hPDGFRb.mmh [11] = biological target: T3, hPDGFRb.mmh; experiment: Octet BLI cross-competition, 25 C; hPDGFRb.mmh on anti-Penta-His tips pre-saturated with mAb-1 H4H3099S (row 6)
Protocol: as §2

hPDGFRb.mmh [12] = biological target: T3, hPDGFRb.mmh; experiment: Octet BLI cross-competition, 25 C; hPDGFRb.mmh on anti-Penta-His tips pre-saturated with mAb-1 H4H3103S (row 4)
Protocol: as §2

hPDGFRb.mmh [13] = biological target: T3, hPDGFRb.mmh; experiment: Octet BLI cross-competition, 25 C; hPDGFRb.mmh on anti-Penta-His tips pre-saturated with mAb-1 H4H3107S (row 7)
Protocol: as §2

hPDGFRb.mmh [14] = biological target: T3, hPDGFRb.mmh; experiment: Octet BLI cross-competition, 25 C; hPDGFRb.mmh on anti-Penta-His tips pre-saturated with mAb-1 H4H3305N (row 8)
Protocol: as §2

hPDGFRb.mmh [15] = biological target: T3, hPDGFRb.mmh; experiment: Octet BLI cross-competition, 25 C; hPDGFRb.mmh on anti-Penta-His tips pre-saturated with mAb-1 H4H3365N (row 2)
Protocol: as §2

hPDGFRb.mmh [16] = biological target: T3, hPDGFRb.mmh; experiment: Octet BLI cross-competition, 25 C; hPDGFRb.mmh on anti-Penta-His tips pre-saturated with mAb-1 H4H3374N (row 3)
Protocol: as §2

hPDGFRb.mmh [17] = biological target: T3, hPDGFRb.mmh; experiment: Octet BLI cross-competition, 25 C; hPDGFRb.mmh on anti-Penta-His tips pre-saturated with mAb-1 Control I (row 1)
Protocol: as §2

hPDGFRb.mmh [18] = biological target: T3, hPDGFRb.mmh; experiment: Octet BLI cross-competition, 25 C; hPDGFRb.mmh on anti-Penta-His tips pre-saturated with mAb-1 H4H3310N (row 9)
Protocol: as §2

Row | Binder | IC50, blocking PDGF-BB (250 pM) activation, SRE-luciferase [1] [M] | IC50, blocking PDGF-DD (400 pM) activation, SRE-luciferase [1] [M] | Percent Internalization (Relative to Control I) [2] [%] | Kd (hPDGFRb.mmh [3]) [nM] | koff (hPDGFRb.mmh [3]) [s⁻¹] | kon (hPDGFRb.mmh [3]) [M⁻¹ s⁻¹] | t1/2 (hPDGFRb.mmh [3]) [min] | Kd [4] [nM] | koff [4] [s⁻¹] | kon [4] [M⁻¹ s⁻¹] | t1/2 [4] [min] | Kd (human PDGFRb.hFc [5]) [nM] | koff (human PDGFRb.hFc [5]) [s⁻¹] | kon (human PDGFRb.hFc [5]) [M⁻¹ s⁻¹] | t1/2 (human PDGFRb.hFc [5]) [min] | Kd (hPDGFRb.mmh [6]) [nM] | koff (hPDGFRb.mmh [6]) [s⁻¹] | kon (hPDGFRb.mmh [6]) [M⁻¹ s⁻¹] | t1/2 (hPDGFRb.mmh [6]) [min] | Kd [7] [nM] | other results
1 | B1 | 6.8e-10 | 6.6e-10 | 66 | 3.41 | 8.92e-05 | 26100 | 130 | 3.75 | 0.000108 | 28800 | 107 | 0.652 | 2.9e-05 | 44500 | 398 | 6.65 | 0.000339 | 50900 | 34 | 7.62 | koff [7]: 0.000392 s⁻¹; kon [7]: 51400 M⁻¹ s⁻¹; t1/2 [7]: 29 min; Kd (human PDGFRb.hFc [8]): 0.632 nM; koff (human PDGFRb.hFc [8]): 4.5e-05 s⁻¹; kon (human PDGFRb.hFc [8]): 71300 M⁻¹ s⁻¹; t1/2 (human PDGFRb.hFc [8]): 256 min; % Maximum Blocking (hPDGFRb.mmh [9]): 86%; IC50 (hPDGFRb.mmh [9]): 0.45 nM; Response of mAb-2 Binding to hPDGFRβ.mmh Pre-Complexed with mAb-1 (nm) (hPDGFRb.mmh [10]): 0.27 nm; Response of mAb-2 Binding to hPDGFRβ.mmh Pre-Complexed with mAb-1 (nm) (hPDGFRb.mmh [11]): -0.01 nm; Response of mAb-2 Binding to hPDGFRβ.mmh Pre-Complexed with mAb-1 (nm) (hPDGFRb.mmh [12]): 0.24 nm; Response of mAb-2 Binding to hPDGFRβ.mmh Pre-Complexed with mAb-1 (nm) (hPDGFRb.mmh [13]): -0.01 nm; Response of mAb-2 Binding to hPDGFRβ.mmh Pre-Complexed with mAb-1 (nm) (hPDGFRb.mmh [14]): 0.01 nm; Response of mAb-2 Binding to hPDGFRβ.mmh Pre-Complexed with mAb-1 (nm) (hPDGFRb.mmh [15]): 0.24 nm; Response of mAb-2 Binding to hPDGFRβ.mmh Pre-Complexed with mAb-1 (nm) (hPDGFRb.mmh [16]): 0.23 nm; Response of mAb-2 Binding to hPDGFRβ.mmh Pre-Complexed with mAb-1 (nm) (hPDGFRb.mmh [17]): 0.2 nm
2 | B2 | 1.7e-10 | 2.4e-10 | 92 | 0.863 | 0.000191 | 221000 | 61 | 0.836 | 0.000198 | 236000 | 58 | 0.0801 | 4.24e-05 | 529000 | 272 | 1.45 | 0.000879 | 605000 | 13 | 1.38 | koff [7]: 0.000942 s⁻¹; kon [7]: 683000 M⁻¹ s⁻¹; t1/2 [7]: 12 min; Kd (human PDGFRb.hFc [8]): 0.165 nM; koff (human PDGFRb.hFc [8]): 0.000115 s⁻¹; kon (human PDGFRb.hFc [8]): 695000 M⁻¹ s⁻¹; t1/2 (human PDGFRb.hFc [8]): 101 min; % Maximum Blocking (hPDGFRb.mmh [9]): 83%; IC50 (hPDGFRb.mmh [9]): 0.066 nM; Response of mAb-2 Binding to hPDGFRβ.mmh Pre-Complexed with mAb-1 (nm) (hPDGFRb.mmh [10]): 0.36 nm; Response of mAb-2 Binding to hPDGFRβ.mmh Pre-Complexed with mAb-1 (nm) (hPDGFRb.mmh [11]): 0.01 nm; Response of mAb-2 Binding to hPDGFRβ.mmh Pre-Complexed with mAb-1 (nm) (hPDGFRb.mmh [12]): 0.33 nm; Response of mAb-2 Binding to hPDGFRβ.mmh Pre-Complexed with mAb-1 (nm) (hPDGFRb.mmh [14]): 0.02 nm; Response of mAb-2 Binding to hPDGFRβ.mmh Pre-Complexed with mAb-1 (nm) (hPDGFRb.mmh [18]): 0.02 nm; Response of mAb-2 Binding to hPDGFRβ.mmh Pre-Complexed with mAb-1 (nm) (hPDGFRb.mmh [15]): 0.32 nm; Response of mAb-2 Binding to hPDGFRβ.mmh Pre-Complexed with mAb-1 (nm) (hPDGFRb.mmh [16]): 0.31 nm; Response of mAb-2 Binding to hPDGFRβ.mmh Pre-Complexed with mAb-1 (nm) (hPDGFRb.mmh [17]): 0.28 nm
3 | B3 | 2.3e-10 | 3.7e-10 | 65 | 1.66 | 0.000142 | 85300 | 81 | 1.7 | 0.00015 | 88300 | 77 | 0.244 | 4.55e-05 | 184000 | 254 | 5.38 | 0.00102 | 190000 | 11 | 5.06 | koff [7]: 0.00101 s⁻¹; kon [7]: 200000 M⁻¹ s⁻¹; t1/2 [7]: 11 min; Kd (human PDGFRb.hFc [8]): 1.05 nM; koff (human PDGFRb.hFc [8]): 0.000264 s⁻¹; kon (human PDGFRb.hFc [8]): 250000 M⁻¹ s⁻¹; t1/2 (human PDGFRb.hFc [8]): 44 min; % Maximum Blocking (hPDGFRb.mmh [9]): 87%; IC50 (hPDGFRb.mmh [9]): 0.37 nM; Response of mAb-2 Binding to hPDGFRβ.mmh Pre-Complexed with mAb-1 (nm) (hPDGFRb.mmh [10]): 0 nm; Response of mAb-2 Binding to hPDGFRβ.mmh Pre-Complexed with mAb-1 (nm) (hPDGFRb.mmh [11]): 0.29 nm; Response of mAb-2 Binding to hPDGFRβ.mmh Pre-Complexed with mAb-1 (nm) (hPDGFRb.mmh [12]): 0.01 nm; Response of mAb-2 Binding to hPDGFRβ.mmh Pre-Complexed with mAb-1 (nm) (hPDGFRb.mmh [13]): 0.26 nm; Response of mAb-2 Binding to hPDGFRβ.mmh Pre-Complexed with mAb-1 (nm) (hPDGFRb.mmh [14]): 0.28 nm; Response of mAb-2 Binding to hPDGFRβ.mmh Pre-Complexed with mAb-1 (nm) (hPDGFRb.mmh [18]): 0.28 nm; Response of mAb-2 Binding to hPDGFRβ.mmh Pre-Complexed with mAb-1 (nm) (hPDGFRb.mmh [16]): 0.01 nm
